From article PMC8537947, “Improved Radiolytic Stability of a ^68Ga-labelled Collagelin Analogue for the Imaging of Fibrosis” (Pharmaceuticals, 2021)
Bridge positions count the residues as written; N and C are the ends. Square brackets hold non-standard residues; d marks the D form. Peptide text beside a SMILES is read from it. * marks the point of attachment. NOTA = O=C(O)CN1CCN(CC(=O)O)CCN(CC(=O)*)CC1; Nle = CCCC[C@H](N)C(=O)O; AEEA = NCCOCCOCC(=O)O

Assay: in vivo
Set-up: species or system Sprague-Dawley rats
Conditions: rat; for SUV at 2 h / SUV at 5 min / SUV at 10 min / SUV at 40 min / SUV at 1 h / SUV at 0.5 h: Sprague-Dawley, iv, total radioactivity
Description: Sixteen male (n = 10; 363.3 ± 19.6 g) and female (n = 6; 199.2 ± 5.5 g) Sprague–Dawley rats were used for ex vivo organ distribution of the [^68Ga]Ga-NO2A-[Nle13]-Col for the subsequent extrapolation and calculation of human dosimetry. The male and female animals were administered into the tail vein with, respectively, 2.3 ± 0.8 MBq and 1.4 ± 0.5 MBq, sacrificed at 5, 10, 30, 40, 60, and 120 min post administration, and the organs were harvested, weighted, and measured for their radioactivity content. Samples from the blood, heart, lung, liver, spleen, adrenal glands, kidneys, intestines with or without contents, muscle, testis, bone, brain, pancreas, urine bladder, and bone marrow were collected. To monitor radioactivity elimination and recovery, the radioactivity of the remaining carcass was also measured. The radioactivity measurements were corrected for decay and converted into standardized uptake values (SUVs, Table S2) according to Equation (2), wherein the radioactivity is expressed in MBq and the weight in grams:(2) SUV=Radioactivityorgan∗weightrat/Radioactivityinjected∗weightorgan

[1] = male, SUV large intestine without content (INL-)
[2] = male, SUV small intestine with its content (INS+)

With CCCC[C@@H]1NC(=O)[C@H](C(C)C)NC(=O)[C@H](CCCNC(=N)N)NC(=O)CNC(=O)[C@@H]2CCCN2C(=O)[C@@H](NC(=O)COCCOCCNC(=O)CN2CCN(CC(=O)O)CCN(CC(=O)O)CC2)CSSC[C@@H](C(=O)O)NC(=O)[C@@H]2CCCN2C(=O)CNC(=O)[C@H](CCC(=O)O)NC(=O)[C@H](CC(=O)O)NC(=O)[C@H](CC(=O)O)NC(=O)CNC(=O)[C@H](CC(C)C)NC(=O)[C@H](Cc2c[nH]cn2)NC(=O)[C@H](CC(C)C)NC(=O)CNC(=O)[C@H](Cc2c[nH]cn2)NC1=O [[^68Ga]Ga-NO2A-[Nle^13]-Col, [^68Ga]Ga-NOTA-PEG2-c[CPGRVNleHGLHLGDDEGPC], metal not drawn] ({NOTA-AEEA}-CPGRV[Nle]HGLHLGDDEGPC-OH; disulfide 1-18) the SUV at 2 h (female, SUV spleen (SP)) was 0.066 SUV, the SUV at 5 min (male, 2.3 MBq, SUV blood (BL)) was 2.22 SUV and the SUV at 10 min (male, 2.3 MBq, SUV blood (BL)) was 1.53 SUV. The SUV at 40 min (male, 2.3 MBq, SUV heart (HE)) was 0.225 SUV, the SUV at 1 h (male, 2.3 MBq, SUV heart (HE)) was 0.123 SUV and the SUV at 2 h (male, 2.3 MBq, SUV heart (HE)) was 0.024 SUV. For the same compound, the SUV at 5 min (male, 2.3 MBq, SUV liver (LI)) was 0.478 SUV, the SUV at 10 min (male, 2.3 MBq, SUV liver (LI)) was 0.308 SUV and the SUV at 0.5 h (male, 2.3 MBq, SUV liver (LI)) was 0.193 SUV. For the same compound, the SUV at 40 min (male, 2.3 MBq, SUV liver (LI)) was 0.198 SUV, the SUV at 1 h (male, 2.3 MBq, SUV liver (LI)) was 0.112 SUV and the SUV at 2 h (male, 2.3 MBq, SUV liver (LI)) was 0.0624 SUV. The SUV at 1 h (male, 2.3 MBq, SUV lungs (LU)) was 0.217 SUV, the SUV at 2 h (male, 2.3 MBq, SUV lungs (LU)) was 0.0955 SUV and the SUV at 5 min (male, SUV TE (testis)) was 0.354 SUV. It also gave an SUV at 10 min (male, SUV TE (testis)) of 0.318 SUV, an SUV at 0.5 h (male, SUV TE (testis)) of 0.216 SUV and an SUV at 40 min (male, SUV TE (testis)) of 0.245 SUV. The SUV at 1 h (male, SUV TE (testis)) was 0.118 SUV, the SUV at 2 h (male, SUV TE (testis)) was 0.0322 SUV and the SUV at 5 min (male, SUV adrenals (AD)) was 0.82 SUV. It also gave an SUV at 10 min (male, SUV adrenals (AD)) of 0.549 SUV, an SUV at 0.5 h (male, SUV adrenals (AD)) of 0.464 SUV and an SUV at 40 min (male, SUV adrenals (AD)) of 0.284 SUV. For the same compound, the SUV at 1 h (male, SUV adrenals (AD)) was 0.494 SUV, the SUV at 2 h (male, SUV adrenals (AD)) was 0.249 SUV and the SUV at 5 min (male, SUV bladder (UB)) was 2.51 SUV. For the same compound, the SUV at 10 min (male, SUV bladder (UB)) was 3.13 SUV, the SUV at 0.5 h (male, SUV bladder (UB)) was 5.01 SUV and the SUV at 40 min (male, SUV bladder (UB)) was 2.8 SUV. The SUV at 1 h (male, SUV bladder (UB)) was 3.73 SUV, the SUV at 2 h (male, SUV bladder (UB)) was 0.896 SUV and the SUV at 0.5 h (male, SUV blood (BL)) was 0.8 SUV. The SUV at 40 min (male, SUV blood (BL)) was 0.624 SUV, the SUV at 1 h (male, SUV blood (BL)) was 0.316 SUV and the SUV at 2 h (male, SUV blood (BL)) was 0.052 SUV. For the same compound, the SUV at 5 min (male, SUV bone (BO)) was 0.12 SUV, the SUV at 10 min (male, SUV bone (BO)) was 0.243 SUV and the SUV at 0.5 h (male, SUV bone (BO)) was 0.143 SUV. For the same compound, the SUV at 40 min (male, SUV bone (BO)) was 0.127 SUV, the SUV at 1 h (male, SUV bone (BO)) was 0.2 SUV and the SUV at 2 h (male, SUV bone (BO)) was 0.0384 SUV. It also gave an SUV at 5 min (male, SUV brain (BR)) of 0.0955 SUV, an SUV at 10 min (male, SUV brain (BR)) of 0.0507 SUV and an SUV at 0.5 h (male, SUV brain (BR)) of 0.0346 SUV. The SUV at 40 min (male, SUV brain (BR)) was 0.0272 SUV, the SUV at 1 h (male, SUV brain (BR)) was 0.0268 SUV and the SUV at 2 h (male, SUV brain (BR)) was 0.0058 SUV. For the same compound, the SUV at 5 min (male, SUV heart (HE)) was 0.97 SUV, the SUV at 10 min (male, SUV heart (HE)) was 0.605 SUV and the SUV at 0.5 h (male, SUV heart (HE)) was 0.338 SUV. The SUV at 5 min (male, SUV kidneys (KI)) was 19.2 SUV, the SUV at 10 min (male, SUV kidneys (KI)) was 14.2 SUV and the SUV at 0.5 h (male, SUV kidneys (KI)) was 13.6 SUV. The SUV at 40 min (male, SUV kidneys (KI)) was 13.1 SUV, the SUV at 1 h (male, SUV kidneys (KI)) was 8.67 SUV and the SUV at 2 h (male, SUV kidneys (KI)) was 11.5 SUV. It also gave an SUV at 5 min [1] of 1.01 SUV, an SUV at 10 min [1] of 0.919 SUV and an SUV at 0.5 h [1] of 0.476 SUV. It also gave an SUV at 40 min [1] of 0.289 SUV, an SUV at 1 h [1] of 0.243 SUV and an SUV at 2 h [1] of 0.0668 SUV. It also gave an SUV at 5 min (male, SUV lungs (LU)) of 1.28 SUV, an SUV at 10 min (male, SUV lungs (LU)) of 1 SUV and an SUV at 0.5 h (male, SUV lungs (LU)) of 0.566 SUV. The SUV at 40 min (male, SUV lungs (LU)) was 0.563 SUV, the SUV at 5 min (male, SUV muscle (MU)) was 0.401 SUV and the SUV at 10 min (male, SUV muscle (MU)) was 0.507 SUV. It also gave an SUV at 0.5 h (male, SUV muscle (MU)) of 0.116 SUV, an SUV at 40 min (male, SUV muscle (MU)) of 0.104 SUV and an SUV at 1 h (male, SUV muscle (MU)) of 0.106 SUV. It also gave an SUV at 2 h (male, SUV muscle (MU)) of 0.0164 SUV, an SUV at 5 min (male, SUV pancreas (PA)) of 0.472 SUV and an SUV at 10 min (male, SUV pancreas (PA)) of 0.419 SUV. It also gave an SUV at 0.5 h (male, SUV pancreas (PA)) of 0.261 SUV, an SUV at 40 min (male, SUV pancreas (PA)) of 0.2 SUV and an SUV at 1 h (male, SUV pancreas (PA)) of 0.111 SUV. It also gave an SUV at 2 h (male, SUV pancreas (PA)) of 0.0272 SUV, an SUV at 5 min (male, SUV red bone marrow (BM)) of 0.584 SUV and an SUV at 10 min (male, SUV red bone marrow (BM)) of 0.543 SUV. For the same compound, the SUV at 0.5 h (male, SUV red bone marrow (BM)) was 0.262 SUV, the SUV at 40 min (male, SUV red bone marrow (BM)) was 1.01 SUV and the SUV at 1 h (male, SUV red bone marrow (BM)) was 1.15 SUV. The SUV at 2 h (male, SUV red bone marrow (BM)) was 0.154 SUV, the SUV at 5 min [2] was 0.731 SUV and the SUV at 10 min [2] was 0.5 SUV. The SUV at 0.5 h [2] was 0.256 SUV, the SUV at 40 min [2] was 0.412 SUV and the SUV at 1 h [2] was 0.132 SUV. The SUV at 2 h [2] was 0.0313 SUV, the SUV at 5 min (male, SUV spleen (SP)) was 0.541 SUV and the SUV at 10 min (male, SUV spleen (SP)) was 0.376 SUV. For the same compound, the SUV at 0.5 h (male, SUV spleen (SP)) was 0.241 SUV, the SUV at 40 min (male, SUV spleen (SP)) was 0.205 SUV and the SUV at 1 h (male, SUV spleen (SP)) was 0.126 SUV. For the same compound, the SUV at 2 h (male, SUV spleen (SP)) was 0.0652 SUV, the “decrease of kidney SUV” value was 40-50% and the “highest SUV (kidneys)” value was “around 12 SUV”.
